Measurements reported in US8227212B2, “Cell that expresses a sulfatase and a formylglycine generating enzyme” (Shire Human Genetic Therapies, Inc., priority 2003, dated 2012).

Assays:
ARSA, ARSC and ARSE = test: Co-expression of FGE (SUMF1) and sulfatase cDNAs in cell lines, sulfatase activities; assay type: cell-based, human; settings: co-transfection with ARSA, ARSC and ARSE cDNAs in various cell lines
Excerpt: To test the effect of FGE (SUMF1) on additional sulfatase activities in normal cells we overexpressed ARSA (SEQ ID NO:14), ARSC (SEQ ID NO:18) and ARSE (SEQ ID NO:22) cDNAs in various cell lines with and without co-transfection of the FGE (SUMF1) cDNA and measured sulfatase activities.
To test for functional conservation of the FGE (SUMF1) gene during evolution we overexpressed ARSA, ARSC and ARSE cDNAs in various cell lines with and without co-transfection of the […] and measured sulfatase activities.

[1] = Biodistribution study of IV FGE-activated GALNS in ICR (normal) mice; assay type: in vivo; settings: single IV injection of 5 mg/kg, two hours after injection
Description: Four-week-old ICR (normal) mice were given a single IV injection of 5 mg/kg FGE-activated GALNS. Liver, femur (bone), heart, kidney and spleen were collected two hours after injection and prepared for histological examination. A monoclonal anti-human GALNS antibody was used to detect the presence of injected GALNS in the various tissues. […] Moreover, GALNS was readily observed in all tissues examined using a horseradish-peroxidase reporter system, […].

MKI mice = test: Pharmacodynamic study in MKI mice (GALNS deficient, Morquio Knock-In); assay type: in vivo; settings: weekly IV 2 mg/kg over 16 weeks
Excerpt: The primary cause of skeletal pathology in Morquio patients is keratan sulfate (KS) accumulation in epiphyseal disk (growth plate) chondrocytes due to deficiency of the lysosomal sulfatase, GALNS. The primary objective of in vivo research studies was to determine whether intravenously (IV) administered FGE-activated GALNS was able to penetrate chondrocytes of the growth plate as well as other appropriate cell types in normal mice.
Four-week-old MKI or wild-type mice were given weekly IV injections (n=8 per group) through 20 weeks of age. Each weekly injection consisted of either 2 mg/kg FGE-activated GALNS or vehicle control (no injection for wild-type mice). All mice were sacrificed for histological examination at 20 weeks of age and stained using the following methods: hematoxylin and eosin for cellular morphology, alcian blue for detection of GAGs.

Molecule	activity of FGE homologs on overexpressed human sulfatases (ARSA, ARSC and ARSE)	GALNS delivery to bone growth plate chondrocytes (FITC reporter system) [1]	presence of injected GALNS in tissues (monoclonal anti-human GALNS antibody) ([1]; liver, femur (bone), heart, kidney and spleen)	chondrocytes in the calcification zone of the growth plate (MKI mice)	vacuolized chondrocytes of the hypertrophic and proliferating zones of the growth plate (MKI mice)	clearance of accumulated GAG (alcian blue staining) (MKI mice; soft tissues (liver, heart, kidney and spleen))
Drosophila FGE (SUMF1): Drosophila FGE (SUMF1) gene, fruitfly FGE ortholog (SEQ ID NO:51) (nucleic acid, Drosophila melanogaster) DNA: ATGACAACAATTATATTAGTCCTCTTTATTTGGATAGTTTTATTCAATGACGTATCCAGCGACTGTGGCTGCCAAAAGCTCGACCGGAAGGCCCCGGATATGCCGTCCATTTCCGGACAAGTGTGCCAGCAACGAGCACAGGGTGCACACAGCCACTACCGGGATTACTATGGCGAACTGGAGCCAAATATTGCGGACATGTCACTGCTTCCGGGAGGCACGGTTTACATGGGTACTGACAAACCGCACTTTCCGGCCGACCGCGAGGCTCCGGAACGGCAGGTGAAGCTGAATGACTTCTACATCGACAAGTATGAGGTTTCCAACGAAGCCTTTGCGAAGTTTGTTCTGCACACTAACTACACCACGGAGGCTGAGCGATATGGCGACAGTTTTCTGTTTAAGAGCCTTTTGAGCCCATTGGAGCAGAAGAACCTAGAGGACTTCCGAGTGGCGAGCGCTGTCTGGTGGTACAAAGTGGCCGGCGTGAACTGGCGACATCCAAATGGCGTGGACAGCGATATAGACCACTTAGGCCGACACCCGGTAGTGCACGTATCGTGGCGCGACGCTGTGGAGTACTGTAAGTGGGCCGGCAAGCGGTTGCCCAGCGAGGCGGAGTGGGAGGCGGCTTGCAGGGGCGGCAAGGAGCGCAAACTGTTTCCCTGGGGCAACAAGCTGATGCCAAGGAATGAACATTGGCTGAACATCTGGCAGGGAGACTTTCCCGATGGCAACCTGGCTGAAGATGGGTTTGAGTACACCAGCCCCGTGGATGCCTTCCGACAGAATATTTACGACCTGCACAACATGGTGGGCAACGTCTGGGAGTGGACGGCAGATCTGTGGGACGTAAATGACGTTAGCGATAATCCAAATCGGGTCAAGAAGGGCGGTTCTTATCTGTGTCACAAGTCCTACTGCTACAGGTACAGGTGCGCGGCACGCTCGCAGAACACAGAAGACAGTTCAGCCGGTAACCTGGGTTTTCGGTGCGCCAAGAATGCGTGA	less efficient					
FGE-activated GALNS: N-Acetylgalactosamine 6-Sulfatase (lysosomal sulfatase) activated by FGE, for enzyme replacement therapy of Morquio disease MPS IVA (protein) APQPPNILLLLMDDMGWGDLGVYGEPSRETPNLDRMAAEGLLFPNFYSANPLCSPSRAALLTGRLPIRNGFYTTNAHARNAYTPQEIVGGIPDSEQLLPELLKKAGYVSKIVGKWHLGHRPQFHPLKHGFDEWFGSPNCHFGPYDNKARPNIPVYRDWEMVGRYYEEFPINLKTGEANLTQIYLQEALDFIKRQARHHPFFLYWAVDATHAPVYASKPFLGTSQRGRYGDAVREIDDSIGKILELLQDLHVADNTFVFFTSDNGAALISAPEQGGSNGPFLCGKQTTFEGGMREPALAWWPGHVTAGQVSHQLGSIMDLFTTSLALAGLTPPSDRAIDGLNLLPTLLQGRLMDRPIFYYRGDTLMAATLGQHKAHFWTWTNSWENFRQGIDFCPGQNVSGVTTHNLEDHTKLPLIFHLGRDPGERFPLSFASAEYQEALSRITSVVQQHQEALVPAQPQLNVCNWAVMNWAPPGCEKLGKCLTPPESIPKKCLWSH		observed in all growth plate sections examined	detected in all tissues examined	reduction of vacuolization	unaffected	reduced or absent alcian blue staining
murine FGE (SUMF1): murine FGE (SUMF1) gene, mouse FGE ortholog (SEQ ID NO:49) (nucleic acid, listed as Mus musculus) DNA: ATGGTCCCCATTCCTGCTGGAGTATTCACAATGGGCACTGATGATCCTCAGATCAGGCAGGATGGAGAAGCCCCTGCCAGGAGAGTCACTGTTGATGGCTTTTACATGGACGCCTATGAAGTCAGCAATGCGGATTTTGAGAAGTTTGTGAACTCGACTGGCTATTTGACAGAGGCTGAGAAGTTTGGAGACTCTTTCGTCTTTGAAGGCATGTTGAGCGAGCAAGTGAAAACGCATATCCACCAGGCAGTTGCAGCTGCTCCATGGTGGTTGCCTGTCAAGGGAGCTAATTGGAGACACCCAGAGGGTCCGGACTCCAGTATTCTGCACAGGTCAAATCATCCGGTTCTCCATGTTTCCTGGAACGATGCTGTTGCCTACTGCACATGGGCGGGCAAGAGGTTGCCTACTGAGGCAGAGTGGGAATACAGCTGTAGAGGAGGCCTGCAGAACAGGCTTTTCCCCTGGGGCAACAAACTGCAGCCCAAAGGACAGCATTATGCCAACATCTGGCAGGGCAAGTTTCCTGTGAGCAACACTGGCGAGGATGGCTTCCAAGGAACTGCCCCCGTTGATGCCTTTCCTCCCAATGGCTATGGCTTATACAACATAGTGGGGAATGTGTGGGAGTGGACCTCAGACTGGTGGACTGTTCACCATTCTGTTGAGGAAACGTTCAACCCAAAGGGTCCCACTTCTGGGAAAGACCGAGTGAAGAAGGGTGGATCCTACATGTGCCATAAGTCCTATTGCTATAGGTACCGCTGTGCAGCTCGAAGCCAGAACACACCAGATAGCTCTGCATCCAACCTGGGATTCCGATGTGCAGCCGACCACCTGCCCACCGCAGACTGA	active on all three human sulfatases					
